Test [1] deals with CD4 on chimp PBMC cells (chimp) (UniProt P16004). Kind of test: flow cytometry, chimp PBMC X301; 1st B4 binding, 2nd Leu3a exposure; Leu3a+ B4- population; competitor B4 pre-bound. In general terms: In flow cytometry, cells or beads pass a laser one at a time.
For test [2] the target is unchanged. The test can be described thus: flow cytometry, chimp PBMC X301, single label control Leu3a-PE.
Test [3] shares this target. The test can be described thus: flow cytometry, chimp PBMC X301; 1st B4 binding, 2nd Leu3a exposure; double stained population; competitor B4 pre-bound.
Test [4] has the same target. Kind of test: flow cytometry, chimp PBMC X282; 1st B4 binding, 2nd Leu3a exposure; double stained population; competitor B4 pre-bound.
For test [5] the target is unchanged. Kind of test: flow cytometry, chimp PBMC X282; 1st Leu3a binding, 2nd B4 exposure; Leu3a+ B4- population.
For test [6] the target is unchanged. Kind of test: flow cytometry, chimp PBMC X282; 1st B4 binding, 2nd Leu3a exposure; Leu3a+ B4- population; competitor B4 pre-bound.
The target is the same in test [7]. The test can be described thus: flow cytometry, chimp PBMC X301; 1st Leu3a binding, 2nd B4 exposure; Leu3a+ B4- population.
Test [8] shares this target. Kind of test: flow cytometry, chimp PBMC X282, single label control Leu3a-PE.

With Leu3a (antibody), the percent positive PBMC in test [1] worked out at 0%; in test [2], 44%; in test [3], 3%; in test [4] it was 1.2%; in test [5], 0.1%; in test [6], 0%. Further, the percent positive PBMC worked out at 0.3% in test [7] and 25.5% in test [8].

The values are drawn from patent publication US20190194326A1.
